Laboratory results published in patent US20190330374A1 (IGM BIOSCIENCES, published 2019).

T1: OX40 on activated T cells (PBMCs activated with Human T cell Activator Dynabeads) (human, UniProt P43489 29-277)
T1 construct: Native OX40 on donor PBMC T cells; also called OX40 on CD8+ T cells (low levels); OX40 on CD4+ T cells (high levels)
T1 sequence: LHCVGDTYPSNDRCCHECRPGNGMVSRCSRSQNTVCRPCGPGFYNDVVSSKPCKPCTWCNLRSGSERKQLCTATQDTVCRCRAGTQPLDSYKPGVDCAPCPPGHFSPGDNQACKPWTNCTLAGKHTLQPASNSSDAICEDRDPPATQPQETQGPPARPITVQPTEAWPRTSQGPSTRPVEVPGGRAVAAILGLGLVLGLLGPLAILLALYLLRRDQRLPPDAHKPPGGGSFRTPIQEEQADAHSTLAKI

B1: Anti-OX40 #1-IgM (antibody, V domains shown)
VH: QVQLQESGPGLVKPSQTLSLTCAVYGGSFSSGYWNWIRKHPGKGLEYIGYISYNGITYHNPSLKSRITINRDTSKNQYSLQLNSVTPEDTAVYYCARYKYDYDGGHAMDYWGQGTLVTVSS
VL: DIQMTQSPSSLSASVGDRVTITCRASQDISNYLNWYQQKPGKAPKLLIYYTSKLHSGVPSRFSGSGSGTDYTLTISSLQPEDFATYYCQQGSALPWTFGQGTKVEIK
B2: Anti-OX40 #1-IgG (antibody, V domains shown)
VH: B1 VH
VL: B1 VL
notes: VH and VL put into an IgG format by standard cloning; It was detected with anti-human kappa light chain, so the light chain is kappa; also called anti-OX40 IgG #1

Tests used:
[1] = molecular target: OX40 in the PathHunter U2OS OX40 Signaling Assay (DiscoverX) cells; experiment: cell-based or functional assay
[2] = molecular target: T1, OX40 on activated T cells (PBMCs …); experiment: flow cytometry on activated PBMC T cells
Method: Ab binding was tested on PBMCs activated for 3 days with Human T cell Activator Dynabeads (Thermo-Fisher) to induce low levels of OX40 on CD8+ T cells (FIG. 3A, 3C) or high levels of OX40 on CD4+ T cells (FIG. 3B, 3D). […] For the PBMCs, anti-CD3-A647 (Biolegend) and CD4-PerCP-CY5.5 (Biolegend) were also included to gate on CD4+CD3+ CD4 T cells and CD4-CD3+ CD8 T cells. FACS data was acquired on a FACSCalibur (BD), analyzed in FlowJo (TreeStar), and plotted in GraphPad Prism. […] Kd was calculated for each antibody in GraphPad Prism software using One Site-Specific binding with Hill slope.

| Binder | fold increase in NF-kB activation (RLU at the highest antibody concentration) compared to uncross-linked Anti-OX40 #1-IgG [1] | fold increase in signaling activation (RLU at the highest antibody concentration) compared to cross-linked Anti-OX40 #1-IgG [1] | binding result [2] |
| --- | --- | --- | --- |
| B1 | 23 fold | 13 fold |  |
| B2 |  |  | binds |
